What was measured:
[1] = molecular target: T1, APOBEC2 (Mus musculus, UniProt Q9WV35 1-224); assay: MST
T1 sequence: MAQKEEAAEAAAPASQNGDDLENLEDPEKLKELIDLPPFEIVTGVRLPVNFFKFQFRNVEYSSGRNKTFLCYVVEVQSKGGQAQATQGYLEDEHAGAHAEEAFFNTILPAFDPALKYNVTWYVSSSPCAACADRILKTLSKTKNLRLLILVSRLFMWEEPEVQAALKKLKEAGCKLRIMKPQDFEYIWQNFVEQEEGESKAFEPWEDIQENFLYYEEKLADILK

[2] = molecular target: SP1 (Homo sapiens, UniProt P08047 2-785); assay: EMSA
[3] = molecular target: T1, APOBEC2; assay: MST; remark: listed apart in the source

SP1, sequence (P08047 2-785): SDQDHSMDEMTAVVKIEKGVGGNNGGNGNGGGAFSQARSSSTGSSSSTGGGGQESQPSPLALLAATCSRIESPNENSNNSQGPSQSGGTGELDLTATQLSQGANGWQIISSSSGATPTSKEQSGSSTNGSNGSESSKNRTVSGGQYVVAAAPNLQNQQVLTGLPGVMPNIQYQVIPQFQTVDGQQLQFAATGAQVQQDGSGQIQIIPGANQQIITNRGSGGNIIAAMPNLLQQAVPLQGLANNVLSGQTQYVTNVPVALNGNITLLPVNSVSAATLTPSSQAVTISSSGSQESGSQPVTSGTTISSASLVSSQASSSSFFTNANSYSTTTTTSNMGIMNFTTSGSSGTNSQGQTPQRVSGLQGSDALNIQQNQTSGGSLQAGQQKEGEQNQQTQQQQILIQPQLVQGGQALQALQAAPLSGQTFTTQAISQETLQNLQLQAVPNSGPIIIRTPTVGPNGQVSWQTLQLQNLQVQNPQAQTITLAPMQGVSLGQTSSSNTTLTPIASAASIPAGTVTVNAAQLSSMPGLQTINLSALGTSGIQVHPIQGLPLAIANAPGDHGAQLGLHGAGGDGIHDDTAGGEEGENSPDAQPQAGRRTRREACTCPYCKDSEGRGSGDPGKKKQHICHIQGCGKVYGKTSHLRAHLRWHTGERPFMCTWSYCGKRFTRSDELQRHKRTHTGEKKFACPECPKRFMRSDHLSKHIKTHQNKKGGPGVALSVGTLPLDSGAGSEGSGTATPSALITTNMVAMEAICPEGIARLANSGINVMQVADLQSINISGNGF

B1: SP/KLF motif dsDNA (dsDNA)
DNA 1: GGCGGCGCGGCCCCGCCCCCTCCTCCGGC
DNA 2: GCCGGAGGAGGGGGCGGGGCCGCGCCGCC
In the case of B1, the Kd [1] is reported as 709 ± 186 nM and the binding result [2] is reported as “binds”.

B2: A-tract motif dsDNA (dsDNA)
DNA 1: TCTCAAGAAAAAAAAAAAAAGAC
DNA 2: GTCTTTTTTTTTTTTTCTTGAGA
B2: no binding [3].
